Measurements taken from patent US20230365714A1 (published 2023).

Biological target: T1, ROR211 shuffle variant (Ig-like domain of ROR2, CRD and kringle domain of ROR1) (human (ROR1/ROR2 chimera), UniProt Q01973 18-937)
T1 construct: Transiently expressed on CHO cells
T1 chain: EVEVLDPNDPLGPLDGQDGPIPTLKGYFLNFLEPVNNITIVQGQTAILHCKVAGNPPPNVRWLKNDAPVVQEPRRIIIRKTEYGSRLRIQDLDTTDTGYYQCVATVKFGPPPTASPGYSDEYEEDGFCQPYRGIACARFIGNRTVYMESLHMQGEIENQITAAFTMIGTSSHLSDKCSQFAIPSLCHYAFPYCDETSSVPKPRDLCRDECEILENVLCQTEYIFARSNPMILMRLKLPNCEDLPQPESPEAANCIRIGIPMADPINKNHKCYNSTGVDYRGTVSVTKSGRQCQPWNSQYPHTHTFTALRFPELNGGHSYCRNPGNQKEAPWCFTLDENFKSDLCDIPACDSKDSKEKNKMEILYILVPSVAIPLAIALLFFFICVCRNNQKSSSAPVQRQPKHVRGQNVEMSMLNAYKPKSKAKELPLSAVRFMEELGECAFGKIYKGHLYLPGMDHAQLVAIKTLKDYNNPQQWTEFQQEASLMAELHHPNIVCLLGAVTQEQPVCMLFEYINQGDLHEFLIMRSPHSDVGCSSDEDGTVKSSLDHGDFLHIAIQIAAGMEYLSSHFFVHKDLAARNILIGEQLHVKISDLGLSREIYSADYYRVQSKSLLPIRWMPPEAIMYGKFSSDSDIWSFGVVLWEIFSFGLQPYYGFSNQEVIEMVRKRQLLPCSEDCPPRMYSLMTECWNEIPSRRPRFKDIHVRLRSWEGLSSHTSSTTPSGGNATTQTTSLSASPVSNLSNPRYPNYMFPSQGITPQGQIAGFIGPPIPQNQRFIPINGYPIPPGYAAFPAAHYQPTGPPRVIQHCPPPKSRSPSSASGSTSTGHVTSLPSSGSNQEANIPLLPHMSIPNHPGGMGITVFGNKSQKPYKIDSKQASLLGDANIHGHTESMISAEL
Test: cell imaging (CellInsight) on CHO cells expressing the shuffle construct
Method: Binding was determined […] using a cell imaging screening system (Celllnsight, Thermo Fisher) as per manufacturer's recommendations. In short, CHO cells expressing shuffle constructs ROR112, ROR121, ROR122, ROR211 or ROR221 (3,000 cells/well in 384-well plates) were incubated with antibody or control samples for 18 h at 37° C./5% CO₂, washed and incubated with an Alexa488-labeled detection antibody for 4 h. Hoechst dye was added and fluorescence images were collected, measuring total spot intensity (RFU).

RFU (total spot intensity): 0 RFU | binding result: no binding (tested: RFU = 0)
B1: chIgG1-ROR2-A (antibody, V domains shown)
VH: QSVEESGGRLVTPGTPLTLTCTVSGFSLSSYSMSWVRQAPGKGLEWIGVIYVNSKTWYANWAKGRFTISKTSTTVDLKITSPTTEDTATYFCARGDAGYTTNSWLWGPGTLVTVSS
VL: AFELTQTPASVSEPVGGTVTIKCQASESIDNYCSWYQQKPGQPPKLLIYQAFKLASGVPSRFRGSGSGTQFTLTISDLESDDAATYYCQSYSGISTTAFGGGTEVVVK
notes: Rabbit-human chimeric antibody; also called ROR2 specific antibody A
